The target in this experiment is mouse CNPase catalytic domain containing the C-terminal tail (construct 6-2) (mouse). In words: SEC; HiLoad 16/60 Superdex 200, after Ni-TED purification and TEV cleavage; dimer to monomers.

Regarding “mouse CNPase catalytic domain containing the C-terminal tail (construct 6-2) (domain or fragment)”, the stoichiometry N (as a rule, a count of units in the complex or per binding partner) came out at 2.

The values are drawn from article PMC2843729.
